According to the supplement of paper PMC10724198:
± gives the standard deviation of the averaged measurements.

System: Saccharomyces cerevisiae
Assay: protein stability index of tFT-peptide fusion (C-terminal peptide) (PSI (0-1 scale)); higher = more stable (slower turnover)
Details: genetic background: wild type; temperature: 30 C
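Also: PSI is a weighted mean of sequencing reads over stability bins, variants kept only with over 10 reads, mCherry proximal and sfGFP distal, peptide attached via GGGS linker.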

| Sequence | protein stability index |
| --- | --- |
| FPPSDPAPTLPP | 0.749 ± 0.088 |
| CEYRRLVISVFD | 0.547 ± 0.028 |
| SHTNVILQDVTI | 0.655 ± 0.087 |
| GVYSVACVSGSV | 0.64 ± 0.014 |
| ATVYFCKVCGGR | 0.687 ± 0.019 |
| RKHLIPRPTSNP | 0.71 ± 0.011 |
| IKKANRKTKPMK | 0.712 ± 0.078 |
| CQHPLRPRCLND | 0.6724 ± 0.0048 |
| PVSSFHICGPIC | 0.71 ± 0.0098 |
| GIIQKAQTSIKI | 0.592 ± 0.0067 |
| KGSWCSPRGELR | 0.6552 ± 0.0059 |
| AFLLPYTSLLLT | 0.516 ± 0.026 |
| GPPPRSPAFRSL | 0.695 ± 0.092 |
| FIPGGPSGFCFR | 0.669 ± 0.075 |
| THHQDGGRAAVR | 0.67913 ± 0.00062 |
| GLRENIFTDKKN | 0.728 ± 0.06 |
| AVWLGVGGRFVG | 0.781 ± 0.053 |
| PAPPPLPPHSLP | 0.718 ± 0.024 |
| QEKQDIIEDHTT | 0.655 ± 0.019 |
| PPHPSPPTPPPH | 0.687 ± 0.017 |
| LPRFTPPLPPPL | 0.734 ± 0.0096 |
| GLARPFVGFPHL | 0.7352 ± 0.0028 |
| WFRPLSMLPPGF | 0.701 ± 0.02 |
| QASEYNREQSGL | 0.6732 ± 0.00076 |
| YYAMGFEKSISS | 0.682 ± 0.031 |

| Sequence | protein stability index |
| --- | --- |
| KQQRKNEKTNTL | 0.658 ± 0.16 |
| TSWLHTCMKCSL | 0.728 ± 0.017 |
| RSFVEQQCVTYA | 0.628 ± 0.11 |
| GGGGHMGGRLVK | 0.692 ± 0.039 |
| RPYLARQTTAPS | 0.6575 ± 0.0033 |
| ESAGLAGLSRAA | 0.668 ± 0.022 |
| PPAAPSPPPPRP | 0.719 ± 0.012 |
| GLFRESVLGSVW | 0.708 ± 0.013 |
| KGDMSCWPSRPI | 0.7137 ± 0.00075 |
| VPSVGFSVHLLP | 0.692 ± 0.021 |
| FQCLPHGFYFGA | 0.661 ± 0.0098 |
| SCGVTRVGALST | 0.664 ± 0.013 |
| LPSQRPWLAQSI | 0.717 ± 0.01 |
| SHLPPPSRFSSD | 0.677 ± 0.077 |
| REGSIISYPASG | 0.6989 ± 0.0019 |
| GGGRGLRCNGLG | 0.738 ± 0.1 |
| PPIVPFGSPVVL | 0.728 ± 0.026 |
| SPRRPPQHPTLL | 0.65 ± 0.016 |
| RVGGGGWPSGVV | 0.747 ± 0.047 |
| IDFNWESSTMNI | 0.7438 ± 0.0058 |
| MIKDVYIDNDNV | 0.694 ± 0.02 |
| VRSCCFFLDAVW | 0.665 ± 0.029 |
| KIIKKKKKNKEH | 0.596 ± 0.055 |
| GGRWGDSGMGVV | 0.715 ± 0.026 |
| RRESTRSRWYEG | 0.762 ± 0.14 |

| Sequence | protein stability index |
| --- | --- |
| KEDLGGMVSGGR | 0.644 ± 0.009 |
| SPTPPTAPPSPL | 0.699 ± 0.015 |
| AQTPNPEPLENN | 0.699 ± 0.033 |
| SLGLSRSRLPKN | 0.682 ± 0.043 |
| APVEVYRHAEAS | 0.67 ± 0.035 |
| SPSSRTTNTHPA | 0.694 ± 0.11 |
| VEARKKTLNTGP | 0.713 ± 0.033 |
| PLNALLHSNPDK | 0.711 ± 0.1 |
| RSTIEHILLFFI | 0.668 ± 0.015 |
| GAGGCNVGWRIR | 0.7265 ± 0.0014 |
| VWGGLAVVTGWA | 0.612 ± 0.073 |
| ESLRNGKKYNKL | 0.7417 ± 0.0017 |
| LPLPHAPPPPPT | 0.7233 ± 0.0026 |
| PPPRTTPYPSSL | 0.714 ± 0.055 |
| CVGSVRYRIRGS | 0.63 ± 0.06 |
| VRGGGRRACVVG | 0.607 ± 0.05 |
| SAPPLFPCPSPA | 0.68 ± 0.03 |
| VCLATPPSTVTP | 0.619 ± 0.065 |
| DAAVQSGGRVAG | 0.481 ± 0.03 |
| GRRLSDTSIFSS | 0.679 ± 0.087 |
| RVNTFHANKWRW | 0.7134 ± 0.0013 |
| TSCIVVRGGRNG | 0.6453 ± 0.0041 |
| KHRKSKEIRTAR | 0.6844 ± 0.0065 |
| KKNCRKNQKEET | 0.663 ± 0.067 |
| GRWSDSSVVTLG | 0.679 ± 0.018 |

| Sequence | protein stability index |
| --- | --- |
| LWGPGGVWGRGR | 0.697 ± 0.05 |
| GLIGLVHFWRGT | 0.655 ± 0.035 |
| RPKGREKGEGRG | 0.733 ± 0.077 |
| VSDLFWAELIGN | 0.71 ± 5.7e-06 |
| RVGLGGRPSGGW | 0.64 ± 0.047 |
| FPHPPPSLPSPR | 0.789 ± 0.064 |
| GVNMGKIYKIRN | 0.649 ± 0.03 |
| ACWGFFIAGVRV | 0.598 ± 0.056 |
| QHHPRTTPHRPS | 0.714 ± 0.0097 |
| STCFPSIVRLGP | 0.612 ± 0.05 |
| PPLPSPPAHSRS | 0.678 ± 0.02 |
| GTVRGVVRGRGG | 0.664 ± 0.012 |
| RRGKGERSQFAP | 0.647 ± 0.017 |
| AWVVVGEGKGWR | 0.717 ± 0.035 |
| VFVGLFCVLGRV | 0.523 ± 0.0079 |
| SPCSSDPLYSFA | 0.762 ± 0.069 |
| LDIGVADAQRML | 0.701 ± 0.14 |
| VLSVETGTSGLF | 0.655 ± 0.01 |
| RRPPVFCIPLFS | 0.639 ± 0.015 |
| PPHPDTSPSFPP | 0.6787 ± 0.0022 |
| GSTSWAWITLPH | 0.747 ± 0.0077 |
| PSLLSFPFVSLP | 0.696 ± 0.05 |
| PHNRSNSWPNPR | 0.714 ± 0.054 |
| KRKETIRKKNQT | 0.734 ± 0.05 |
| PPPPLAPSPPPS | 0.6542 ± 0.0025 |

| Sequence | protein stability index |
| --- | --- |
| SNPFPTILSSSS | 0.736 ± 0.037 |
| QQGKWHTRRKKY | 0.659 ± 0.07 |
| SDFGSFRFRSIV | 0.5773 ± 0.0018 |
| AGGGRGAEGCGG | 0.783 ± 0.069 |
| CGHAGQTPRTSR | 0.718 ± 0.065 |
| PGLDPFHGMNLS | 0.6906 ± 0.0027 |
| LSHAQIDPEFTE | 0.697 ± 0.042 |
| VLSLCLSVRSFV | 0.562 ± 0.017 |
| LLCSLRPLAVPP | 0.602 ± 0.039 |
| LGSASRQLARPR | 0.66 ± 0.12 |
| AENHCIASRIGH | 0.659 ± 0.019 |
| PRSPPTPPPAPP | 0.66 ± 0.013 |
| TGLRLFRPLSLP | 0.776 ± 0.069 |
| PLTPCPSATPAY | 0.648 ± 0.021 |
| DLTPLSSSRLPP | 0.652 ± 0.04 |
| RPLSPPRPPPPS | 0.678 ± 0.014 |
| PPRAPSPSPLPP | 0.893 ± 0.1 |
| LLSSATPSKFPS | 0.836 ± 0.021 |
| PLAPPPPSSPPV | 0.675 ± 0.083 |
| TEKWTRSSPMTR | 0.764 ± 0.087 |
| IPSLSLPLQTGS | 0.64 ± 0.055 |
| PASPHPPSPSPL | 0.604 ± 0.022 |
| GGRRTEIYTGPA | 0.703 ± 0.019 |
| FGDTYICKPFWG | 0.765 ± 0.033 |
| RLPRSPLHPSVP | 0.738 ± 0.016 |

| Sequence | protein stability index |
| --- | --- |
| VLDRGGAGAVCV | 0.649 ± 0.024 |
| HFWGCCRRRCLK | 0.66 ± 0.051 |
| GWGIFRISSFGT | 0.713 ± 0.018 |
| VEKQFSVWSFRG | 0.68 ± 0.031 |
| PSSPSTRPRFPL | 0.68 ± 0.083 |
| AATGPPHPPSPP | 0.804 ± 0.037 |
| DQTPRWQRCTRQ | 0.733 ± 0.12 |
| SGSIRHSSPLPT | 0.75 ± 0.12 |
| NWAPRCCIGNII | 0.669 ± 0.12 |
| DDGRRRAERGGG | 0.685 ± 0.047 |
| FGYEPVSLRAEF | 0.675 ± 0.029 |
| EPTLLVRMVANR | 0.529 ± 0.026 |
| LQIFRSRCFGGL | 0.722 ± 0.13 |
| HPFASRSRFTPR | 0.753 ± 0.063 |
| GADPPGHSSDDS | 0.712 ± 0.11 |
| EKGKGREIKKGE | 0.646 ± 0.048 |
| AYCGGSNKCTTE | 0.732 ± 0.026 |
| QIFPLRLTWSRR | 0.642 ± 0.029 |
| VWVWATGWGARG | 0.7369 ± 0.0038 |
| YCNLSFKINREW | 0.696 ± 0.12 |
| FRRRYGCLLRGE | 0.6573 ± 0.004 |
